138 substances from the supplement of paper PMC12042874 can be followed below.

± gives the uncertainty stated by the source.

This series can be described thus: amyloid nucleation score (Sup35N fusion, yeast selection) (log enrichment); library NNK1; higher = more nucleation; inactive = no reads after selection. The essentials:
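On medium lacking adenine and uracil, psi-negative yeast expressing peptides of 20 random codons fused to Sup35N were grown 7 days at 30°C after a 24-hour induction with 100 μM copper sulfate. Illumina sequencing of input and output plasmid inserts gave the reads, and sequences under 100 input reads were excluded. The nucleation score is the DiMSum log enrichment of output over input reads, centred on the mode score of non-aggregating sequences.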
Regarding RPGGGAACAVRGRLPVCQLG, the amyloid nucleation score was -1.13 ± 0.96. In the case of RPGMEADLLVNLPLF it was 0.958 ± 0.72; in that of RPYGPYALLWSISIYAWELL, 0.508 ± 0.61; in that of RQDGYPRCIVRVILLECSLI, -0.321 ± 0.66. RQLVIIFNDDLGDVGNGNFC returned an amyloid nucleation score of 7.61 ± 0.043. The value for RQRTIFWLMFWELAMFNCHM was -0.423 ± 0.74. As for RQSRLAYGCVLVYVLTADFG, the amyloid nucleation score is -0.025 ± 0.29.

With RRAPLNLTREVSSVWEWRII, the amyloid nucleation score is -0.631 ± 0.68. The substance RRGFVAHLFLVLTVVCNLNS came in with an amyloid nucleation score of 7.2 ± 0.071.

Take RRGGGGSSIFLMHTAWILLE: the amyloid nucleation score is 1.03 ± 0.34. Consider RRGLCGNAKAIIRGLAQGWD, for which the amyloid nucleation score was -1 ± 1.2. The value for RRHTLSFVTGFCVIGFYGGD was 4.48 ± 0.063; that for RRMGKSFKAYTDGVQRKILS was 0.593 ± 0.68. In the case of RRPASFLFFTYPILLQVFTF it was -1.22 ± 2.1. Turning to RRRCSSVGRDLMAGSDKRYE, the amyloid nucleation score is 0.663 ± 0.24. For RRRPGPLPRCAF, the amyloid nucleation score was found to be 1.96 ± 0.18. Regarding RRSMGRGVLVKGRGSCREYV, the amyloid nucleation score turned out to be 0.251 ± 0.81. The value for RRVGLVASDTGRGEWWTRSM was -0.015 ± 0.55; that for RRVGVYDGLRIFS was 0.086 ± 0.93; that for RRVGWLRTRSG was 0.731 ± 0.41. The value for RRVNNKLRSTSGSTLTCCTY was 0.216 ± 1.4; that for RRWGLFDIFKMPKELNMLHW was 0.915 ± 1.1. Take RRWRTFLMRCKRNDTSKIRR: the amyloid nucleation score was -1.36 ± 1.2. Take RSCSNRIIKCNLSHVMFY: the amyloid nucleation score was 4.45 ± 0.052.

In the case of RSDISASHRSVGLLNSHRTD, the amyloid nucleation score is -0.58 ± 1.5. In the case of RSFAYSLSQGYFANMNAKVR it was “inactive”; in that of RSLFRECEKIVDRHSMSNFH, 0.445 ± 0.4. Regarding RSLLLALFAICYVCGGYEWV, the amyloid nucleation score stood at 1.24 ± 0.85. The value for RSMRDLDPTMVFGSVNSLGW was 0.166 ± 0.63.

Take RSMYVSRRPIVPPLYIGFWE: the amyloid nucleation score turned out to be 0.166 ± 0.48. The value for RSRIYCGFNRPTCEGFSRLS was 2.63 ± 0.11; that for RSRPVPIVKDRSISNSRESR was -0.999 ± 2.4.

As to RSSCL, the amyloid nucleation score was -2.09 ± 2.4. The value for RSSKYVNHASQKNAHLRGCS was 0.641 ± 0.7; that for RSSNNIPGGYWEPYGQHHFH was 2.44 ± 0.13; that for RSTYVCKIRVRMIYVDVKCS was 0.596 ± 0.46. The value for RSVSLKWQSRKHWLLTLTLA was 0.931 ± 0.32; that for RSYGGLIKFNHVSDTL was -0.429 ± 0.93. In the case of RTCAWVGQHATSLWPFNRGQ it was 0.493 ± 0.77; in that of RTCSKHYIWYKALIGFALGN, -0.27 ± 0.33.

Consider RTEGVET, for which the amyloid nucleation score was -0.251 ± 0.58. The value for RTELPHFFRVFAHRFACSGD was 1.31 ± 0.93; that for RTILISAGAKCVNLMMLDSV was 1.6 ± 0.29; that for RTMHVRFDIRKVALKIFKFY was 1.3 ± 0.4. In the case of RTPHVERGTGIGLEISSTEV it was 0.041 ± 0.97. In the case of RTRLFYFGPDNNRVRRRGCS it was 1.13 ± 0.71; in that of RTSRHVVVRREMRDRT, 0.202 ± 0.21; in that of RTVVQKKPVRCNMICNYWVF, 4.82 ± 0.064.

Substance RVCKYGCAKT had an amyloid nucleation score of 0.566 ± 0.34. RVDGVKIRGYNWHLLMITCI yielded an amyloid nucleation score of 0.083 ± 0.6. As for RVETYRSYGAIIEVNRPVYM, the amyloid nucleation score came out at 0.625 ± 0.6. RVGILRMYSMFQFFKSLQWI: the amyloid nucleation score was -0.372 ± 0.86. As for RVGWMLNGAGALWFFRYKLN, the amyloid nucleation score is -0.256 ± 0.7.

Turning to RVIPAAVISHYVK, the amyloid nucleation score is -0.143 ± 1.7. RVLATKRRLQKRLHESVLLA came in with an amyloid nucleation score of 0.34 ± 1.1. RVLRVFLGDTLFYCQSGSGL returned an amyloid nucleation score of 1.84 ± 0.22.

On to RVLSVIVNILIARFT, for which the amyloid nucleation score is -0.028 ± 0.25.

RVMFACF displayed an amyloid nucleation score of 0.15 ± 0.37.

Regarding RVNIV, the amyloid nucleation score was -0.624 ± 0.48. RVNMWRYI had an amyloid nucleation score of 0.295 ± 0.4. The value for RVNYDVLVHLMPGLWVRTRL was 0.372 ± 1.4. In the case of RVQFRKSTVSISYQNGFCTQ it was 2.73 ± 0.086; in that of RVSKFPKSFNVSFKADNKIH, 4.02 ± 0.06. The value for RVSPFISNTFVVNSKETHGV was 4.56 ± 0.056. Take RVYILFRHLVYSGGKFSVFI: the amyloid nucleation score result is “inactive”. In the case of RVYISMM it was -1.41 ± 1.7; in that of RVYLFNYICGGLDFFLRPTV, 5.37 ± 0.081; in that of RWCLSTRKFSWR, 0.305 ± 0.42.

As to RWFDYDESESVKSVHLNLVR, the amyloid nucleation score was -1.37 ± 0.89.

For RWGLRQIMVVENFIHRWVCP, the amyloid nucleation score came to 1.04 ± 0.79. In the case of RWPTRNFQGTVRYAR it was -0.62 ± 0.7. The value for RWSETR was 0.998 ± 0.48; that for RWSFSSTY was 3.69 ± 0.085; that for RWSWTVIMSMEADGCFRLHL was 1.68 ± 0.28. The value for RYAISYNLRVVGLISMYRNT was 0.655 ± 0.29; that for RYDAWCYGWGVMMLHKFIG was -0.012 ± 0.64.

For RYHRTGCLGILWLSLSHRLS, the amyloid nucleation score is 0.418 ± 0.59. The value for RYHRWFRVRSSENRWGIC was -0.51 ± 0.93; that for RYHTVYGIYGRLWGWFMKFD was -0.159 ± 0.33.

Turning to RYIRLRMFLCLFYLMCLPRR, the amyloid nucleation score was -1.25 ± 0.75. Turning to RYIVVG, the amyloid nucleation score amounted to 0.106 ± 0.24. For RYPSLLWIFDFNYLLYLRFQ, the amyloid nucleation score is -0.451 ± 0.25. In the case of RYSLYQSEWVGKSMRDLTAR it was 1.03 ± 0.62; in that of RYTFVITVYKIDDSSEMSWV, 0.82 ± 0.25. Substance RYTRSGLIDMFTNSSTDAHS showed an amyloid nucleation score of 0.115 ± 0.43.

In turn, RYWCCSPVRSLVHGRHCEV returned an amyloid nucleation score of 1.52 ± 0.24. For RYYGLFVYVARIYSALRSCK, the amyloid nucleation score is -0.104 ± 0.33. In the case of SAAPRFCSYSSFFALSNLSI it was 0.615 ± 0.3. In the case of SAASPFFFSDCGWPSGILNY it was 1.26 ± 0.67; in that of SAHSDPQMRKNSLTYGNDLI, -0.116 ± 0.42; in that of SAPENSWGAWLDYGELEVGW, 0.016 ± 0.35. The value for SASSMVFNTTSPT was -0.404 ± 0.51. In turn, SASVAHLCDYVVENI had an amyloid nucleation score of 0.018 ± 0.54.

As for SASWGRYGERLHCDQRYFII, the amyloid nucleation score result is “inactive”.

As to SAVGYISLLYNSWAKYTICN, the amyloid nucleation score is -0.562 ± 0.69. The value for SCAWRYNICTLISVRWVCK was 0.756 ± 0.34; that for SCCWVSIDSNQCHRACTVRT was -0.136 ± 0.56. Turning to SCEFLCVRHVLCHHLSLNVS, the amyloid nucleation score was 0.296 ± 1.4. The value for SCGNLIVRPLVGVCHAWNEE was 0.489 ± 0.46. As to SCGWDLVCGMMAVHSSGIVL, the amyloid nucleation score worked out at 0.975 ± 0.42. Turning to SCHYDQPDQKLLASQSLL, the amyloid nucleation score was -1.02 ± 0.68.

Substance SCIKNSCGINYLVGQATFHN came in with an amyloid nucleation score of 6.499 ± 0.049.

Turning to SCIYLNGSPVDEDGKYVHDF, the amyloid nucleation score entry is “inactive”. SCKFMIYNSVGAGSLGHVNR yielded an amyloid nucleation score of 4.69 ± 0.094. SCLLTMSLE yielded an amyloid nucleation score of 0.11 ± 0.43.

Turning to SCYIDYNFYSWQGSWYCFKI, the amyloid nucleation score result was “inactive”.

As to SCYTVYQLGLDVGRGVDLEF, the amyloid nucleation score was -0.013 ± 0.58. For SDAMSTHQRVNRF, the amyloid nucleation score is 0.369 ± 0.55. SDEGN showed an amyloid nucleation score of 1.55 ± 0.53.

In the case of SDELWLLQFPVLNNKLWEK, the amyloid nucleation score was 0.726 ± 1.1. In the case of SDESKMCRMGYYLPALAIAW it was -0.173 ± 0.82; in that of SDFGI, -0.647 ± 0.64.

For SDKAMHCGCVLH, the amyloid nucleation score was -0.891 ± 0.56. In the case of SDLELTTLFF it was -0.57 ± 0.37; in that of SDMDNTWLA, -0.797 ± 0.66. Turning to SDYMCTKSSIKLNTYIDVKD, the amyloid nucleation score was -1.6 ± 2.1.

The substance SEAVCVRVQLAWDRLMGVRV gave an amyloid nucleation score of 0.966 ± 0.64. SECLLYSWRVILSRLSPESE showed an amyloid nucleation score of 0.257 ± 0.62. Regarding SEGCCYRKGCVTTRDSALSG, the amyloid nucleation score entry was “inactive”. SEGIPPQFFRYTAGASNLDT had an amyloid nucleation score of 0.306 ± 0.64. On to SEGMYSRMAIEWLSGE, for which the amyloid nucleation score worked out at 1.21 ± 0.69. With SEVCPSSIKR, the amyloid nucleation score was -0.067 ± 0.49. On to SEWSRKGVYNACLITG, for which the amyloid nucleation score is -0.01 ± 0.48. In the case of SEYETG it was 0.101 ± 0.34; in that of SFAHHAFIGFILSSWWN, -1.06 ± 2.4. In the case of SFCNFQGVRFFL, the amyloid nucleation score came out at 1.73 ± 0.2. Substance SFDGLYLNSCRFSLPCLLSR came in with an amyloid nucleation score of 0.196 ± 0.26.

As for SFFFKFYSDSFGNSTFQTID, the amyloid nucleation score was -0.046 ± 0.31. SFFLFRENFEMSNIRFRYVN: the amyloid nucleation score worked out at 0.995 ± 0.68. Take SFFLIIVQREKRVRTSGCL: the amyloid nucleation score worked out at 0.954 ± 0.8. The value for SFFWVYHRYSMPRSLCVM was “inactive”. The value for SFIIVYY was 1.84 ± 0.19. The value for SFKWVVRVWRCRILWNSGVS was 0.001 ± 0.78; that for SFKYWNIRHKYFRTSLT was -0.152 ± 0.4.

On to SFLDMGFEAVNFGVVPSIMR, for which the amyloid nucleation score turned out to be 0.479 ± 0.48. In the case of SFLLGQGTL it was 0.724 ± 0.69; in that of SFLWYIGFNSWRFCGRYTTL, 0.174 ± 0.5. In the case of SFSHVYFYGVPYGQVPYRSV it was 1.5 ± 0.28.
